16 molecules from US20250188189A1 (published 2025) can be followed below.

Positions count from the first letter of the chain named.

Sequences and labels used below:
T1: plasma-derived human activated protein C (APC) (UniProt P04070 43-461)
T1 chain: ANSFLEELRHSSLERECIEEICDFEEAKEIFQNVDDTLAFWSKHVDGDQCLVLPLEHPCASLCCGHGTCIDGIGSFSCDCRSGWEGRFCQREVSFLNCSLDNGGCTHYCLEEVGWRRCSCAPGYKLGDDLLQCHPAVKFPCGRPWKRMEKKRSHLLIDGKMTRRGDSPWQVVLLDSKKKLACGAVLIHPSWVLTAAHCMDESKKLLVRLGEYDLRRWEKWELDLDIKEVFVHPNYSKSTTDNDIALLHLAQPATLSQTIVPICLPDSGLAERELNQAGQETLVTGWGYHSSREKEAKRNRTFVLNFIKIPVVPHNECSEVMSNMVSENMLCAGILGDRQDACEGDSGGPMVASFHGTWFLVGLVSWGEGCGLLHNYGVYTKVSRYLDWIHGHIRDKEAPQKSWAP

B1: TPP-24727 (antibody, V domains shown)
VH: EVQLVESGGGLVQPGGSLRLSCAASGFTFSNYYLNWVRQAPGKGLEWVGDIRLKSNNYEKHYAESVKGRFTISRDDSKNSLYLQMNSLKTEDTAVYYCAREGDYFDYWGQGTLVTVSS
VL: DIVLTQSPASLAVSPGQRATITCKASESVDSFGATFMHWYQQKPGQPPKLLIYLASNLESGVPARFSGSGSGTDFTLTINPVEADDTANYYCQQNNEDPYTFGQGTKLEIKR
B2: TPP-26870 (antibody, V domains shown)
VH: EVQLVESGGGLVQPGGSLRLSCAASGFTFSNYYMNWVRQAPGKGLEWVSYISSSSSTIYYADSVKGRFTISRDDSKNSLYLQMNSLKTEDTAVYYCAREGDYFDYWGQGTLVTVSS
VL: EIVLTQSPGTLSLSPGERATLSCRASQSVSSFGATFMHWYQQKPGQPPKLLIYLASNRASGVPDRFSGSGSGTDFTLKISRVEAEDVGVYYCQQNNEDPYTFGQGTKLEIKR
B3: TPP-26934 (antibody, V domains shown)
VH: B1 VH with L34I
VL: B2 VL with K78T, S80N, R81P, E85D, V87T, G88A, V89N
B4: TPP-26920 (antibody, V domains shown)
VH: B1 VH with L34M, N35S
VL: B2 VL with Q41L, P47S, K49Q
B5: TPP-26926 (antibody, V domains shown)
VH: B1 VH with L34M, N35S
VL: B2 VL with E1D, G9A, T10S, S12A, L13V, E17Q, L21I, S22T, R24K
B6: TPP-24737 (antibody, V domains shown)
VH: B2 VH
B7: TPP-24745 (antibody, V domains shown)
VH: B2 VH with M34I
B8: TPP-24777 (antibody, V domains shown)
VH: B2 VH with N31S, M34L
B9: TPP-24739 (antibody, V domains shown)
VH: EVQLVESGGGLVQPGGSLRLSCAASGFTFSNYYMNWVRQAPGQGLEWMGRIIPILGIANYAQKFQGRFTISRDDSKNSLYLQMNSLKTEDTAVYYCAREGDYFDYWGQGTLVTVSS
B10: TPP-24743 (antibody, V domains shown)
VH: B9 VH with N35S
B11: TPP-24738 (antibody, V domains shown)
VH: EVQLVESGGGLVQPGGSLRLSCAASGFTFSNYYMNWVRQAPGKGLEWVGRIKSKTDGGTTDYAAPVKGRFTISRDDSKNSLYLQMNSLKTEDTAVYYCAREGDYFDYWGQGTLVTVSS
B12: TPP-24750 (antibody, V domains shown)
VH: B11 VH with M34I, N35S
B13: TPP-24766 (antibody, V domains shown)
VH: B11 VH with Y32A, N35S
B14: TPP-24740 (antibody, V domains shown)
VH: B1 VH with L34M, N35S
B15: TPP-24744 (antibody, V domains shown)
VH: B1 VH with L34I
B16: hAPC (enzyme)
chain: T1 chain

Broadly, the Kd is a measure of binding affinity in units of concentration.

For the first test, the target named is T1, plasma-derived human activated protein …. Description: SPR.
Turning to B1, the Kd was 44.8 nM.

The target is the same in a further test. Description: SPR. The source holds these as a separate data set.
In turn, B2 registered a Kd of 12.9 nM.

As for B1, the Kd amounted to 18.7 nM.

For B3, the Kd was determined as 19.8 nM.

On to B4, for which the dissociation constant Kd worked out at 28.1 nM.

Molecule B5 displayed a Kd of 30.5 nM.

The next test shares this target. Kind of test: SPR. The source holds these as a separate data set. (In general: Surface plasmon resonance follows binding to a sensor surface in real time, without labels.)
In turn, B6 showed a Kd of 12.5 nM.

For the molecule B7, the Kd amounted to 76.4 nM. This Kd lies about 6.1-fold higher than the previous one.

B8 yielded a Kd of 31.4 nM.

B9 displayed a Kd of 0.737 nM. Compared with the last molecule, the Kd is about 43-fold lower.

On to B10, for which the dissociation constant (Kd) worked out at 0.174 nM.

With B11, the Kd was 1.81 nM.

For the molecule B12, the Kd was 13200 nM.

Molecule B13 showed a Kd of 29700 nM.

For the molecule B14, the equilibrium dissociation constant (Kd) is 60.5 nM. This Kd lies about 490-fold lower than the previous one.

As for B1, the Kd stood at 44.8 nM.

B15 gave a Kd of 22.8 nM.

A further test deals with TPP-29862. Kind of test: SPR; head prints nM; kd/ka gives M.
B16: the equilibrium dissociation constant (Kd) turned out to be 11 nM.

A further test has as its target T1, plasma-derived human activated protein …. Description: SPR; head prints nM; kd/ka gives M.
In the case of B2, the Kd stood at 40 nM.
